Among the data in article PMC3528264 are colonies on QDO values, retold here.

The target of this experiment is AflJ (A. parasiticus BN9), yeast two-hybrid fusion (A. parasiticus) (UniProt O42716). Briefly: two-hybrid.
Chain of UniProt O42716 (O42716 whole entry, the tested form may be a part): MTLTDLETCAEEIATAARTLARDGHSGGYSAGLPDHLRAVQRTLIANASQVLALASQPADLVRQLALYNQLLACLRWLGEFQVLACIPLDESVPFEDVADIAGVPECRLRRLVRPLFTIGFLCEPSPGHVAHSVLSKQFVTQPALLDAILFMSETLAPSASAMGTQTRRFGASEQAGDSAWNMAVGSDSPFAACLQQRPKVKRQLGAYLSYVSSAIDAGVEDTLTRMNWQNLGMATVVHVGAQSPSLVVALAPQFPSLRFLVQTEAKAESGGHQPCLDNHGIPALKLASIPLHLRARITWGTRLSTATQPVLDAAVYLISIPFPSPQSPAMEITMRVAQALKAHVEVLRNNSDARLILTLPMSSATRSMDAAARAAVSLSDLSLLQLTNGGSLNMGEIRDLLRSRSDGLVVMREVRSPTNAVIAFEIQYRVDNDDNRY

As to “AflR, Gal4 activation domain fusion (pGADT7) (from UniProt P43651 1-444) (natural protein)”, the colonies on QDO amounted to 125 colonies.
